The results in this text go back to patent publication US20240092844.

The data set has as its system KLF6-CDK200 RTF 8 phosphate-contact mutant 8 phosphate-contacting Arg to Gln (Homo sapiens). Briefly: cell_activity. The conditions noted are these: on-target activity reduced 12%; only CDKN1C upregulated in RNA-seq.

Consider “TTGAAACTGAAAATACTACATTATGCTA (double strand) [CDKN1C target 200]”, for which the binding signal (% of unmodified CDK200) worked out at 88.
